Target: RUNX1 Runt domain (UniProt Q01196 50-178)
Test: ITC

Chain of RUNX1 Runt domain (Q01196 50-178): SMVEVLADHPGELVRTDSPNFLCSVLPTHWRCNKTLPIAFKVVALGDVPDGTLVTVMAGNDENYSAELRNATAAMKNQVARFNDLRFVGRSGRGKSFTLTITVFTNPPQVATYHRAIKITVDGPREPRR

Kd: ~709 nM
stoichiometry N: 1.17
B1: CBFβ-SMMHC_(d134-236) (type I CBFβ-SMMHC fusion protein) (other)
chain: MPRVVPDQRSKFENEEFFRKLSRECEIKYTGFRDRPHEERQARFQNACRDGRSEIAFVATGTNLSLQFFPASWQGEQRQTPSREYVDLEREAGKVYLKAPMILNGVCVIWKGWIDLQRLDGMGCLEFDEERAQLHEYETELEDERKQRALAAAAKKKLEGDLKDLELQADSAIKGREEAIKQLRKLQAQMKDFQRELEDARASRDEIFATAKENEKKAKSLEADLMQLQEDLAAAERARKQADLEKEELAEELASSLSGRNALQDEKRRLEARIAQLEEELEEEQGNMEAMSDRVRKATQQAEQLSNELATERSTAQKNESARQQLERQNKELRSKLHEMEGAVKSKFKSTIAALEAKIAQLEEQVEQEAREKQAATKSLKQKDKKLKEILLQVEDERKMAEQYKEQAEKGNARVKQLKRQLEEAEEESQRINANRRKLQRELDEATESNEAMGREVNALKSKLRRGNETSFVPSRRSGGRRVIENADGSEEETDTRDADFNGTKASE

Reference: paper PMC2874204 (Cancer cell, 2010)
